Results on one protein are retold here after PMC8163212 (Chemical Science, 2020).

The data set deals with the molecule itself. The data set can be described thus: SEC.

B1: UVR8 mutant W198/250/302F (6Wd + 4Wc), on the W400F background (receptor)
chain: MAEDMAADEVTAPPRKVLIISAGASHSVALLSGDIVCSWGRGEDGQLGHGDAEDRPSPTQLSALDGHQIVSVTCGADHTVAYSQSGMEVYSWGWGDFGRLGHGNSSDLFTPLPIKALHGIRIKQIACGDSHCLAVTMEGEVQSWGRNQNGQLGLGDTEDSLVPQKIQAFEGIRIKMVAAGAEHTAAVTEDGDLYGWGFGRYGNLGLGDRTDRLVPERVTSTGGEKMSMVACGWRHTISVSYSGALYTYGFSKYGQLGHGDLEDHLIPHKLEALSNSFISQISGGWRHTMALTSDGKLYGWGFNKFGQVGVGNNLDQCSPVQVRFPDDQKVVQVSCGWRHTLAVTERNNVFAWGRGTNGQLGIGESVDRNFPKIIEALSVDGASGQHIESSNIDPSSGKSFVSPAERYAVVPDETGLTDGSSKGNGGDISVPQTDVKRVRI
Take B1: the binding result is reported as “binds”.
